The values that follow come from paper PMC12126530, “A low-complexity linker as a driver of intra- and intermolecular interactions in DNAJB chaperones” (Nature Communications, 2025).

What all share (conditions): both partners purified
In experiment [1] the target is T1, Full-length Hsc70-T204A (ATPase deficient mutant) (human, UniProt P11142 1-646, T204A).
T1 construct: Hsc70, the constitutively expressed cytosolic form of human Hsp70, full length, with T204A; 5 mM ATP in fluorescence polarisation; also called hydrolysis deficient Hsc70 mutant T204A; source: pET-15b vector, expressed at 25 °C overnight, purified (StrepTactin, TEV cleavage, Superdex 200)
Briefly: NMR 15N-CPMG relaxation dispersion with exchange-induced shifts; 15N-labelled JDP (DNAJB6 JD-GF 200 μM, DNAJB6 JD 350 μM, DNAJB1 300 μM) with unlabelled Hsc70-T204A at a molar ratio of 0.1, ATP-regenerating system, 20 mM HEPES pH 7.0, 50 mM KCl, 2.5 mM MgCl2, 25 °C, 600, 800 and 950 MHz; fit to a 2-state model; kex = kon app + koff.

The target in experiment [2] is T2, Full-length Hsc70-T204A (ATPase deficient mutant) (human, UniProt P11142 1-646, T204A).
T2 construct: Hsc70, the constitutively expressed cytosolic form of human Hsp70; full length with the ATPase-deficient mutation T204A; source: pET-15b vector, expression at 25 °C overnight, purified (StrepTactin, TEV cleavage, Superdex 200)
Briefly: NMR 15N-CPMG relaxation dispersion and exchange-induced shifts; 15N-labelled JDP observed, unlabelled Hsc70-T204A added to a molar ratio of 0.1 (DNAJB6 JD-GF 200 uM, DNAJB6 JD 350 uM, DNAJB1 300 uM); 25 °C; 20 mM HEPES pH 7.0, 50 mM KCl, 2.5 mM MgCl2; ATP-regenerating system with 2.5 mM ATP; fit to a two-state binding model.

For experiment [3], the target named is T2, Full-length Hsc70-T204A (ATPase …). Briefly: fluorescence polarisation; direct binding: Hsc70-T204A titrated into 300 nM fluorescein-labelled DNAJB6 JD; 25 °C; 20 mM HEPES pH 7.0, 50 mM KCl, 5 mM MgCl2, 5 mM ATP; four-point logistic fit, 1:1 model. Background: Polarisation of emitted light reports the rotation of a fluorescent probe.

A word on the koff: it is the first-order rate constant of dissociation. A word on the kon: it is a measure of how fast the partners come together.

B1: DNAJB1 JD-GF (domain or fragment)
chain: not shown
modifications: 15N-labelled; limits by convention: ends just before helix 5 (DNAJB6 helix 5 is 96-104, and DNAJB6 F91 aligns with DNAJB1 Y92, giving about 97-105); start as in PDB 6Z5N
Turning to B1, the Kd in experiment [1] is approximately 300 µM.

B2: DNAJB1 JD (domain or fragment)
chain: not shown
notes: DNAJB1, construct truncated immediately after the J-domain; also called DNAJB1 1-67; JD of DNAJB1; source: E. coli BL21(DE3), purified (HisTrap, TEV cleavage, C18 reverse phase HPLC); not shown: His-tag, N-terminal, cleaved
Regarding B2, the Kd in experiment [2] is approximately 450 µM.

B3: DNAJB6 JD (domain or fragment)
chain: not shown
notes: DNAJB6, construct truncated immediately after the J-domain; 15N-labelled for NMR; also called isolated JD of DNAJB6; DNAJB6 J-domain; source: E. coli BL21(DE3), purified (HisTrap, TEV cleavage, C18 reverse phase HPLC); not shown: His-tag, N-terminal, cleaved
Turning to B3, in experiment [2], the Kd was found to be 3.4 ± 1.1 µM, the dissociation rate constant (koff) was 2740 ± 51 s⁻¹ and the kon stood at 8e+08 M⁻¹ s⁻¹.

B4: Fluorescently labelled DNAJB6 JD (with an additional C-terminal GSSC sequence) (domain or fragment)
chain: not shown
modifications: Fluorescein-5-Maleimide on the C-terminal cysteine
notes: DNAJB6 J-domain construct; not shown: His-tag, N-terminal, cleaved
Take B4: in experiment [3], the Kd amounted to 18 ± 6.5 µM.

B5: DNAJB1 JD-GF (domain or fragment)
chain: not shown
modifications: 15N-labelled; limits by convention: ends just before helix 5 (DNAJB6 helix 5 is 96-104, and DNAJB6 F91 aligns with DNAJB1 Y92, giving about 97-105); start as in PDB 6Z5N
For the molecule B5, in experiment [2], the Kd came out at 288 ± 13 µM, the koff came out at 1700 ± 40 s⁻¹ and the kon stood at 5.91e+06 M⁻¹ s⁻¹.
